Test results from patent publication US20170210813A1 (Regeneron, published 2017).
One block for each binder: values may come before it.

Experiments:
[1] = target: T1, full length human PDGFR-beta on HEK293 cells (human, UniProt P09619 33-1106); assay: cell-based or functional assay
[2] = target: T1, full length human PDGFR-beta on HEK293 …; assay: cell-based or functional assay; remark: listed apart in the source
[3] = target: T2, hPDGFRb.mmh (human, UniProt P09619 33-531); assay: SPR, mAb captured, 25 C
T2 construct: Soluble monomeric construct; also called soluble human PDGFR-beta.mmh
Description: (§1) Antibodies, expressed as either mouse Fc (prefix H1M; H2M) or human Fc (prefix H4H), were captured on their respective anti-Fc sensor surfaces (Mab capture format). […] Kinetic association (kₐ) and dissociation (kd) rate constants were determined by processing and fitting the data to a 1:1 binding model using Scrubber 2.0 curve fitting software.

[4] = target: T3, Macaca fascicularis PDGFRb.mmh (Macaca fascicularis); assay: SPR, mAb captured, 25 C
T3 construct: Soluble monomeric construct; also called mfPDGFRb.mmh
T3 chain: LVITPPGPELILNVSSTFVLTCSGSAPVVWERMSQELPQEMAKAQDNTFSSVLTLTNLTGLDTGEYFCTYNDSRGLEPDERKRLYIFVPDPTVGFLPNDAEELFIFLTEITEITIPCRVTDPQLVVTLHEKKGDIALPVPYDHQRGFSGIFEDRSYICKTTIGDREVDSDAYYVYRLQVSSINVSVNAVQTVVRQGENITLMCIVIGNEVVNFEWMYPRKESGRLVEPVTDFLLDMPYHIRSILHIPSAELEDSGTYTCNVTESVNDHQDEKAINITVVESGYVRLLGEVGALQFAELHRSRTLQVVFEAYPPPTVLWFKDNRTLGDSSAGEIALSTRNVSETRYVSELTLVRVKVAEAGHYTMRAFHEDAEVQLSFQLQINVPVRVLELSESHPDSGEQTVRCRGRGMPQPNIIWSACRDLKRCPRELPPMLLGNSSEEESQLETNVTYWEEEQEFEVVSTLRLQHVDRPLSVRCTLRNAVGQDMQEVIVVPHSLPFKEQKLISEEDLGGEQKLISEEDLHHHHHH
Description: as §1

[5] = target: T4, human PDGFRb.hFc (human); assay: SPR, mAb captured, 25 C
T4 construct: Soluble dimeric construct with human Fc; also called hPDGFRb.hFc
Description: as §1

[6] = target: T2, hPDGFRb.mmh; assay: SPR, mAb captured, 37 C
Description: as §1

[7] = target: T3, Macaca fascicularis PDGFRb.mmh; assay: SPR, mAb captured, 37 C
Description: as §1

[8] = target: T4, human PDGFRb.hFc; assay: SPR, mAb captured, 37 C
Description: as §1

[9] = target: T2, hPDGFRb.mmh; assay: blocking ELISA, biot-hPDGFRb.mmh to coated PDGF-BB
[10] = target: T2, hPDGFRb.mmh; assay: Octet BLI cross-competition, 25 C; hPDGFRb.mmh on anti-Penta-His tips pre-saturated with mAb-1 H4H3094P (row 5)
Description: (§2) A cross-competition assay was conducted to assess the ability of select antibodies to compete with one another for binding to human PDGFR-beta. […] Each PDGFR-beta.mmh-coated sensor tip was saturated for 5 min with a first anti-PDGFR-beta antibody (Mab #1; 50 μg/mL). Next, each sensor tip was saturated with a solution of a second anti-PDGFR-beta antibody (Mab #2). The real time response of Mab #2 binding to PDGR-beta.mmh pre-complexed with Mab #1 was then monitored. All assays were performed at 25° C. with a flow rate of 1000 rpm on an Octet RED384 biosensor in Octet HBST buffer according to manufacturer's instructions (ForteBio Corp., Menlo Park, Calif.). Results are illustrated in FIG. 2.

[11] = target: T2, hPDGFRb.mmh; assay: Octet BLI cross-competition, 25 C; hPDGFRb.mmh on anti-Penta-His tips pre-saturated with mAb-1 H4H3107S (row 7)
Description: as §2

[12] = target: T2, hPDGFRb.mmh; assay: Octet BLI cross-competition, 25 C; hPDGFRb.mmh on anti-Penta-His tips pre-saturated with mAb-1 H4H3310N (row 9)
Description: as §2

[13] = target: T2, hPDGFRb.mmh; assay: Octet BLI cross-competition, 25 C; hPDGFRb.mmh on anti-Penta-His tips pre-saturated with mAb-1 H4H3365N (row 2)
Description: as §2

[14] = target: T2, hPDGFRb.mmh; assay: Octet BLI cross-competition, 25 C; hPDGFRb.mmh on anti-Penta-His tips pre-saturated with mAb-1 H4H3374N (row 3)
Description: as §2

[15] = target: T2, hPDGFRb.mmh; assay: Octet BLI cross-competition, 25 C; hPDGFRb.mmh on anti-Penta-His tips pre-saturated with mAb-1 Control I (row 1)
Description: as §2

IC50, blocking PDGF-BB (250 pM) activation, SRE-luciferase [1]: 1.3e-10 M | IC50, blocking PDGF-DD (400 pM) activation, SRE-luciferase [1]: 1.5e-10 M | Percent Internalization (Relative to Control I) [2]: 81% | Kd [3]: 1.26 nM | koff [3]: 0.000358 s⁻¹ | kon [3]: 283000 M⁻¹ s⁻¹ | t1/2 [3]: 32 min | Kd [4]: 1.66 nM | koff [4]: 0.000472 s⁻¹ | kon [4]: 284000 M⁻¹ s⁻¹ | t1/2 [4]: 24 min | Kd [5]: 0.148 nM | koff [5]: 8.93e-05 s⁻¹ | kon [5]: 600000 M⁻¹ s⁻¹ | t1/2 [5]: 129 min | Kd [6]: 1.84 nM | koff [6]: 0.00126 s⁻¹ | kon [6]: 685000 M⁻¹ s⁻¹ | t1/2 [6]: 9 min | Kd [7]: 2.63 nM | koff [7]: 0.00177 s⁻¹ | kon [7]: 670000 M⁻¹ s⁻¹ | t1/2 [7]: 7 min | Kd [8]: 0.178 nM | koff [8]: 0.000291 s⁻¹ | kon [8]: 1.63e+06 M⁻¹ s⁻¹ | t1/2 [8]: 40 min | % Maximum Blocking [9]: 86% | IC50 [9]: 0.12 nM | Response of mAb-2 Binding to hPDGFRβ.mmh Pre-Complexed with mAb-1 (nm) [10]: 0 nm | Response of mAb-2 Binding to hPDGFRβ.mmh Pre-Complexed with mAb-1 (nm) [11]: 0.24 nm | Response of mAb-2 Binding to hPDGFRβ.mmh Pre-Complexed with mAb-1 (nm) [12]: 0.26 nm | Response of mAb-2 Binding to hPDGFRβ.mmh Pre-Complexed with mAb-1 (nm) [13]: 0.01 nm
B1: H4H3374N (antibody, human IgG4, V domains shown)
VH: QLQLQESGPGLVKPSETLSLTCTVSGGSITSSSYYWGWIRQPPGKGLEWIGSIYYRGSTNYNPSLKSRVTISVDSSKNQFYLKVSSVTAVDTAVYYCARQNGAARPSWFDPWGQGTLVTVSS
VL: EIVLTQSPDTISLSPGERATLSCRASQSISSIYLAWYQQKPGQAPRLLIYGASSRVTGIPDRFSVSGSGTDFTLTISRLEPEDFAVYYCQHYGISPFTFGPGTKVDIR
notes: human IgG4 Fc (H4H prefix)

IC50, blocking PDGF-BB (250 pM) activation, SRE-luciferase [1]: 5e-10 M | IC50, blocking PDGF-DD (400 pM) activation, SRE-luciferase [1]: 4.8e-10 M | Percent Internalization (Relative to Control I) [2]: 79% | Kd [3]: 1.81 nM | koff [3]: 0.000109 s⁻¹ | kon [3]: 59900 M⁻¹ s⁻¹ | t1/2 [3]: 106 min | Kd [4]: 1.82 nM | koff [4]: 0.000111 s⁻¹ | kon [4]: 61200 M⁻¹ s⁻¹ | t1/2 [4]: 104 min | Kd [5]: 0.248 nM | koff [5]: 3.42e-05 s⁻¹ | kon [5]: 138000 M⁻¹ s⁻¹ | t1/2 [5]: 338 min | Kd [6]: 1.93 nM | koff [6]: 0.000355 s⁻¹ | kon [6]: 184000 M⁻¹ s⁻¹ | t1/2 [6]: 33 min | Kd [7]: 2.04 nM | koff [7]: 0.00039 s⁻¹ | kon [7]: 191000 M⁻¹ s⁻¹ | t1/2 [7]: 30 min | Kd [8]: 0.197 nM | koff [8]: 4.85e-05 s⁻¹ | kon [8]: 247000 M⁻¹ s⁻¹ | t1/2 [8]: 238 min | % Maximum Blocking [9]: 86% | IC50 [9]: 0.3 nM | Response of mAb-2 Binding to hPDGFRβ.mmh Pre-Complexed with mAb-1 (nm) [10]: 0.27 nm | Response of mAb-2 Binding to hPDGFRβ.mmh Pre-Complexed with mAb-1 (nm) [11]: 0 nm | Response of mAb-2 Binding to hPDGFRβ.mmh Pre-Complexed with mAb-1 (nm) [12]: 0.01 nm | Response of mAb-2 Binding to hPDGFRβ.mmh Pre-Complexed with mAb-1 (nm) [13]: 0.26 nm | Response of mAb-2 Binding to hPDGFRβ.mmh Pre-Complexed with mAb-1 (nm) [14]: 0.24 nm | Response of mAb-2 Binding to hPDGFRβ.mmh Pre-Complexed with mAb-1 (nm) [15]: 0.22 nm
B2: H4H3305N (antibody, human IgG4, V domains shown)
VH: QLQLQESGPGLVKPSETLSLTCIVSGGSISSSSYYWGWIRQPPGKGLEWIGSLYYSGITFYNPSLKSRVTISVDTSKNQFSLTLTSVTAADTAVFYCARHRVMASSPFDHWGQGTLVTVSS
VL: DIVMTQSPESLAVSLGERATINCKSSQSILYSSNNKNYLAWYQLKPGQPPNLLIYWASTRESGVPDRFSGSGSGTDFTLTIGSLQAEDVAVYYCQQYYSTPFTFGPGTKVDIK
notes: human IgG4 Fc (H4H prefix)

IC50, blocking PDGF-BB (250 pM) activation, SRE-luciferase [1]: 4e-10 M | IC50, blocking PDGF-DD (400 pM) activation, SRE-luciferase [1]: 3.9e-10 M | Percent Internalization (Relative to Control I) [2]: 77% | Kd [3]: 1.56 nM | koff [3]: 0.000257 s⁻¹ | kon [3]: 165000 M⁻¹ s⁻¹ | t1/2 [3]: 45 min | Kd [4]: 1.63 nM | koff [4]: 0.000289 s⁻¹ | kon [4]: 177000 M⁻¹ s⁻¹ | t1/2 [4]: 40 min | Kd [5]: 0.256 nM | koff [5]: 6.2e-05 s⁻¹ | kon [5]: 242000 M⁻¹ s⁻¹ | t1/2 [5]: 186 min | Kd [6]: 6.58 nM | koff [6]: 0.00147 s⁻¹ | kon [6]: 223000 M⁻¹ s⁻¹ | t1/2 [6]: 8 min | Kd [7]: 6.69 nM | koff [7]: 0.0017 s⁻¹ | kon [7]: 253000 M⁻¹ s⁻¹ | t1/2 [7]: 7 min | Kd [8]: 0.877 nM | koff [8]: 0.000248 s⁻¹ | kon [8]: 283000 M⁻¹ s⁻¹ | t1/2 [8]: 47 min | % Maximum Blocking [9]: 85% | IC50 [9]: 0.12 nM | Response of mAb-2 Binding to hPDGFRβ.mmh Pre-Complexed with mAb-1 (nm) [11]: 0.23 nm | Response of mAb-2 Binding to hPDGFRβ.mmh Pre-Complexed with mAb-1 (nm) [12]: 0.25 nm | Response of mAb-2 Binding to hPDGFRβ.mmh Pre-Complexed with mAb-1 (nm) [14]: 0.02 nm | Response of mAb-2 Binding to hPDGFRβ.mmh Pre-Complexed with mAb-1 (nm) [15]: -0.01 nm
B3: H4H3094P (antibody, human IgG4, V domains shown)
VH: EVQLVESGGGLVQPGGSLRLSCAASGFTFSSYWMSWVRQAPGKGLEWVANMNQDGSETHYVDSVKGRLSISRDNAKKSLFLHMNSLRAEDTAVYFCARDLVPPRQDDYYYYFGMDVWGHGTTVTVSS
VL: DIQMTQSPSTLSASVGDRVTITCRASQSISDWLAWYQQKPGKAPKLLIFKASTLESGVPSRFSGSGSGTEFTLTISSLQPDDFATYYCQQYNSYSRTFGQGTKVEIK
notes: also called H4H3394P

IC50, blocking PDGF-BB (250 pM) activation, SRE-luciferase [1]: 2.1e-10 M | IC50, blocking PDGF-DD (400 pM) activation, SRE-luciferase [1]: 1.9e-10 M | Percent Internalization (Relative to Control I) [2]: 88% | Kd [3]: 1.16 nM | koff [3]: 0.000169 s⁻¹ | kon [3]: 145000 M⁻¹ s⁻¹ | t1/2 [3]: 68 min | Kd [4]: 0.987 nM | koff [4]: 0.000164 s⁻¹ | kon [4]: 166000 M⁻¹ s⁻¹ | t1/2 [4]: 71 min | Kd [5]: 0.23 nM | koff [5]: 5.48e-05 s⁻¹ | kon [5]: 238000 M⁻¹ s⁻¹ | t1/2 [5]: 211 min | Kd [6]: 2.39 nM | koff [6]: 0.000639 s⁻¹ | kon [6]: 267000 M⁻¹ s⁻¹ | t1/2 [6]: 18 min | Kd [7]: 2.17 nM | koff [7]: 0.000652 s⁻¹ | kon [7]: 300000 M⁻¹ s⁻¹ | t1/2 [7]: 18 min | Kd [8]: 0.193 nM | koff [8]: 0.000105 s⁻¹ | kon [8]: 540000 M⁻¹ s⁻¹ | t1/2 [8]: 110 min | % Maximum Blocking [9]: 91% | IC50 [9]: 0.097 nM | Response of mAb-2 Binding to hPDGFRβ.mmh Pre-Complexed with mAb-1 (nm) [10]: 0.35 nm | Response of mAb-2 Binding to hPDGFRβ.mmh Pre-Complexed with mAb-1 (nm) [13]: 0.33 nm | Response of mAb-2 Binding to hPDGFRβ.mmh Pre-Complexed with mAb-1 (nm) [14]: 0.31 nm | Response of mAb-2 Binding to hPDGFRβ.mmh Pre-Complexed with mAb-1 (nm) [15]: 0.28 nm
B4: H4H3099S (antibody, human IgG4, V domains shown)
VH: QITLKESGPTLVKPTQTLTLTCTFSGFSLTTTGVGVGWIRQPPGKALEWLALIYWNDLKRYSPSLKNRLTITKDTSRHQVVLTMTNMDPMDTATYYCAHRPLYYGSGSGWFDPWGPGTTVTVSS
VL: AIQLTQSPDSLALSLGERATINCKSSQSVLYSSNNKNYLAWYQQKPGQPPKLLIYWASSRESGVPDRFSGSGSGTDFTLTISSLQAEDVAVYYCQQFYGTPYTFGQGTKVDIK
notes: human IgG4 Fc (H4H prefix)
